According to US11402384B2 (Duke University, priority 2015, dated 2022):
Like-named read-outs stand apart in the source and are kept apart here. Marks after values point to notes of the source that are not given here.

How the values were obtained:
[1] = Protocol: Eight homologs that were predicted to be glucose-binding proteins (FIG. 4, Table 3) were selected to probe different degrees of sequence identity to the ttGBP1 seed, and their glucose-binding properties were determined experimentally. These experiments comprised four successive steps: • 1. Synthetic gene construction. The amino acid sequence of the homology leads were backtranslated into DNA sequences. These were optimized for directing heterologous cytoplasmic expression of the protein homologues in E. coli, using either the OrfOpt or OrfMorph programs. These programs predict mRNA sequences that direct high-level protein expression in E. coli. The predicted gene sequences were assembled de novo from synthetic oligonucleotides. • 2. Heterologous protein expression of the homologues in E. coli. Plasmids carrying the synthetic expression constructs (see above) were transformed into KRX competent cells (Promega). Protein production was induced in bacterial cultures of these cultures, as described in the Materials and Methods. • 3. Purification of successfully expressed protein using immobilized metal affinity chromatography. • 4. Verification of glucose binding. Determination of the glucose-binding properties of the purified proteins using a thermal stability shift assay.
Analysis of glucose-binding properties using thermal melts. The thermal stability of purified GBP candidate proteins was determined by measuring the temperature-dependence of the fluorescence signal of an extrinsically added dye, SYPRO, using a Roche LightCycler (Layton and Hellinga, 2010, Biochemistry, 49, 10831-41). The total fluorescence intensity, S, is given by S=βFfF+βUfU 11 where fF and fU are the fractions of protein in the folded and unfolded states, respectively, and βF and βU the fluorescence baselines of these two states. To get the fractions of the two states, we have
[formula] where KU(T) is the temperature-dependent unfolding equilibrium constant, which by the van't Hoff approximation is given by
[formula] Where T is the temperature, Tm, the unfolding reaction transition mid-point temperature, and ΔHU the enthalpy of unfolding.

[2] = Ratiometric fluorescence glucose titration of fluorescent conjugates; assay type: binding; set-up: key to Shape (fluorescence response to glucose) / Change (fluorescence response to glucose): m, monochromatic; d, dichromatic (i.e. spectral shape change); 0, no change; settings: tsGBP 13C affinity mutants, Acrylodan or Badan conjugates
Outline: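 Single-cysteine glucose-binding protein mutants labelled site-specifically with thiol-reactive environmentally sensitive fluorophores; emission spectra recorded during glucose titration to detect ligand-mediated intensity and spectral-shape changes for ratiometric read-out. Temperature- and ligand-dependent fluorescence landscapes acquired in 1K steps; binding fitted to single-site fractional saturation.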

[3] = ligand-free protein, SYPRO Orange, Roche LightCycler

| Molecule | Thermostability ^apoTm [1, 3] [°C] | further results |
| --- | --- | --- |
| smGBP7: glucose-binding protein from Staphylothermus marinus, SEQ ID NO: 15 (protein, smGBP7 (with signal peptide replaced with M and a GGSHHHHHH at C-terminus)) MELVIYHWWTAGGEREAINAVFQVFKQKYPNIQIVENPVAGGAGSVMKSVIIGLLAAGTPPDTFQVHAGAELKEYVDAGYLAPIDDIWSKLGLDKVIPSTLQVMAKFNGHYYAVPIDVHRSNVLWYNPKIFNELGIINKFGDPRNWSVDTLLQVARYIKQQRPDIAPIALASRNKWPVTHLFEVLLANAGGPETYVKFFTGKFNYNDPNDPVVQTVKKVLTVMATMAKEGLFNSNHPELTWDQAAALVAEGKAAMFIHGDWVAGYYIANNYKYGKDWAAAPFPKNIFILLSDAFELPKNAPHPEAAKDWLMVVGSKEAQEKFNLIKGSIPARTDVSPKYPDPYRPETAEDFQKSTLIPSAVHGGIAKEAFMTDLHNILTSMLTAVSVGTPVDNAVNTALAQILQSVKTSGLASFWKGYTIDYFITKRGGSHHHHHH |  | Thermostability ^apoTm ([1]; determined using fluorescent Acrylodan and/or Badan conjugates): 40^f ° C. |
| koGBP5: glucose-binding protein from Kosmotoga olearia, SEQ ID NO: 13 (protein, koGBP5 (with signal peptide replaced with M and a GGSHHHHHH at C-terminus)) MLEIFSWWTGGGEEEGLLALFDVFHKYYPDVEIINATVAGGAGTNAKAVLKTRMLGGNPPDSFQVHGGMELIDTYVVTGMMEPITDLLEEWGIIDKFPEDILKIASYKGEVYSIPVNVHRGNVVFYNKAILEEVGIEKVPSTWPEFIEVLKKIKKAGYIPLALGDKNKWTATHLFEDILLSTLGPYNYNGLWNGRTSFEHQGVKEALEIFKELMNYVNPNHASLTWQDATLLVFEGKAAFNVMGDWAEGYLKTLGWTPGKEFGWMVVPGTKGSFMVVTDTFGLPKNAPHRENAIKWLKIISSVEGQDTFNPIKGSIPARIDADRSLYDDYLIWSMDDFATNALCPSIIHGSAAPEAFVTALNDTINMFITRKDVKKALKEIIYAAEDYLEGGSHHHHHH | >100 |  |
| tnGBP4: glucose-binding protein from Thermotoga neapolitana, SEQ ID NO: 12 (protein, tnGBP4 (with signal peptide replaced with M and a GGSHHHHHH at C-terminus)) MLEIFSWWTAGGEAEALEALIKVFNKYYPDVEVINATVAGGAGTNAKAVLKTRILGGNPPDSFQVHAGMELIDTYVIPGYMTPITNLLEQWGVMDKFPKGILEMASYEGEIYSIPVNVHRGNVVFYNKKIAEEIGMNEPPKTWDEFIMYLQKAKEKGYVGLALGDKNKWTALHLFETILLGVLGPNDYNGLWKGEVSFNDPRIRRAFEIMNKLLDYVNEDHAALAWQDATRLVYEGKALANVMGDWAEGYLKSVGWEPGKDFGWFAVPETQNAFMVVSDTFGLPKNAPHKENAVKWLKVVASVEGQDAFNPIKGSIPARLDADRSKYDIYLQWSMEDFATKALTPSIAHGSAAPEGFVTTLNDIINRFVTTRDIDSALEELLMAAEDEGYLVEGGSHHHHHH | >100 |  |
| asGBP8: glucose-binding protein from Arthrobacter sp., SEQ ID NO: 16 (protein, asGBP8 (with signal peptide replaced with M and a GGSHHHHHH at C-terminus)) MKLEITSWWTSGSEADALNVLIDGVKAAKPGLSVDNAAVSGGGGANARQALAARLQAGSPPDAWQVHPAGQLKSYVDGGQVADLTDLWTEGDWASQMPKDVAEAQQVDGKYYTVPIGVHRGNVLWTNPAVLSKANVTIDADAGIDGLISSLEQVQASGTTPLALGDKDIFASSQLLESLIMSRAGADNWTKLFTSEYSFDAPEVKQALEDYKTILSFANKDHSAITWDEAAKKMADGEAAVNLMGDWAYGELLNAGKKPGTDFAWVAFPGKEDIFDYVGDGFSIPANNIPHAEAARAWLKTLMDPKIQTEFAAKKGSIPAVTSADISGLSEYQQEAAKSLASGAVVSSLAHAQAAGAEFAQTYADAVSTFNGSGNTDAFIASMTQAQKTQLGGSHHHHHH | 58 |  |
| ttGBP1: glucose-binding protein from Thermus thermophilus, SEQ ID NO: 9 (protein, ttGBP1 (with signal peptide replaced with M and a HHHHHH at C-terminus)) MKLEIFSWWAGDEGPALEALIRLYKQKYPGVEVINATVTGGAGVNARAVLKTRMLGGDPPDTFQVHAGMELIGTWVVANRMEDLSALFRQEGWLQAFPKGLIDLISYKGGIWSVPVNIHRSNVMWYLPAKLKGWGVNPPRTWDKFLATAQTLKQKGLEAPLALGENWTQQHLWESVALAVLGPDDWNNLWNGKLKFTDPKAVRAWEVFGRVLDAANKDAAGLSWQQAVDRVVQGKAAFNIMGDWAAGYMTTTLKLKPGTDFAWAPSPGTQGVFMMLSDSFGLPKGAKNRQNAINWLRLVGSKEGQDTSNPLKGSIAARLDSDPSKYNAYGQSAMRDWRSNRIVGSLVHGAVAPESFMSQFGTVMEIFLQTRNPQAAANAAQAIADQVGLGRLGQHHHHHH | >100 |  |
| D278L B: tsGBP2.13C.D278L (SEQ ID NO: 52) Badan conjugate (conjugate, Badan conjugate; tsGBP2.13C.D278L (13C, 278L double substitution mutant with signal peptide replaced with M and a GGSHHHHHH at C-terminus)) MKLEIFSWWAGDCGPALEALIRLYKQKYPGVEVINATVTGGAGVNAKAVLKTRMLGGDPPDTFQVHAGQELIGTWVVADRMEDLTSLFRQEGWLQAFPKGLIDLLSYKGGIWSVPVNIHRSNVMWYIPAKLKEWGVTPPKTWAEFLATAQTLKRKGLEAPLALGENWTQQHLWESVALATLGADGWNNLWSGKLKFTDPKAVAVWETFGKVLDAANKDAAGLSWQQAVDRVVQGKAAFNIMGDWAAGYMSTTLKLKPGTDFAWTPSPGTSGIFMMLSLSFGLPKGAKNRQNAINWLKLVGSKEGQDTFNPLKGSIAARLDSDPAKYNAYGQSAMKDWKSNRIVGSLVHGAVAPESFMSQFGTVMEIFLQSRNPQAAANAAQAIANQVGLGRGGSHHHHHH |  | Change (fluorescence response to glucose) [2]: 0 |
| K312M B: tsGBP2.13C.K312M (SEQ ID NO: 53) Badan conjugate (conjugate, Badan conjugate; tsGBP2.13C.K312M (13C, 312M double substitution mutant with signal peptide replaced with M and a GGSHHHHHH at C-terminus)) MKLEIFSWWAGDCGPALEALIRLYKQKYPGVEVINATVTGGAGVNAKAVLKTRMLGGDPPDTFQVHAGQELIGTWVVADRMEDLTSLFRQEGWLQAFPKGLIDLLSYKGGIWSVPVNIHRSNVMWYIPAKLKEWGVTPPKTWAEFLATAQTLKRKGLEAPLALGENWTQQHLWESVALATLGADGWNNLWSGKLKFTDPKAVAVWETFGKVLDAANKDAAGLSWQQAVDRVVQGKAAFNIMGDWAAGYMSTTLKLKPGTDFAWTPSPGTSGIFMMLSDSFGLPKGAKNRQNAINWLKLVGSKEGQDTFNPLMGSIAARLDSDPAKYNAYGQSAMKDWKSNRIVGSLVHGAVAPESFMSQFGTVMEIFLQSRNPQAAANAAQAIANQVGLGRGGSHHHHHH |  | Kd ([2]; read-out: Glucose affinity ^appKd): 26 mM; Kd ([2]; read-out: Glucose affinity ^trueKd): 39 mM; Change (fluorescence response to glucose) [2]: m |
| bhGBP6: glucose-binding protein from Bacillus halodurans, SEQ ID NO: 14 (protein, bhGBP6 (with signal peptide replaced with M and a GGSHHHHHH at C-terminus)) MLEIFSWWTGAGEEDGLLALIELFEEKHPEIEVDNAAVAGGAGTNAKAVLTSRMQGNDPPGTFQVHGGAELNDSWVAAGQMDPLNDLFEAEGWADKFPEELIELVSKDGNIYSVPVNIHRGNVLWYNTEIFEEHGLEVPTTFEEFFDVADALQEAGVTPLALGDREPWAATHLFETVLLGTLGADDYNKLWSGEVGMDDPRVEEAAEIFIRMLDYVNEDHSSRNWQDASQLVAQGEAAMNVMGDWAKGYFVNDLNLAVKEDFGWAATPGTEGTFMVITDTFGLPTGVENPEVVKSFLAVLGSQEGQDAFNPLKGSIPARVDADVSKYDEYGQETIEDFKSAELSPSLAHGSAANEGFLTQVNQAINIFVTQKDVDSFVDSLKQYQPGGSHHHHHH | 53 |  |
